The results in this text go back to the RNAGym collection of RNA variant scans (doi:10.7554/elife.80360).

Sequences and labels used below:
B1: CPEB3 Ribozyme (parent)
chain: GGGGGCCACAGCAGAAGCGUUCACGUCGCGGCCCCUGUCAGAUUCUGGUGAAUCUGCGAAUUCUGCUGU

Variants of B1 are the subject of the data set. In words: self-cleavage, relative activity (ratio to wild type); higher = more cleavage; co-transcriptional.
Turning to C63U U69C, the self-cleavage was 1.06. To U64A U69G belongs 0.988; to U64A U69C, 1.05. With U64A U69A the figure was 0.964; with G68C, 1; with G68U, 1.01. To G68A belongs 1.01; to A60U U69A, 0.536. Consider U62G G68C, for which the self-cleavage was determined as 0.866.

Regarding G68A U69C, the self-cleavage is 1.05. Regarding G68A U69A, the self-cleavage is 1.08.

On to C63U C66G, for which the self-cleavage came out at 0.456. To U62A C63U belongs 0.705. In the case of U61C U69A, the self-cleavage amounted to 0.946. Turning to G65U G68U, the self-cleavage is 0.681. With G65U G68A the figure was 0.919; with C63A U64G, 0.783; with G65C U67A, 0.589. With U61A U69C, the self-cleavage was determined as 1.06.

Regarding U61A U69G, the self-cleavage was 1.02.

U64C C66A: the self-cleavage is 0.435. U61A U64G: the self-cleavage turned out to be 0.529.

U61A U64C: the self-cleavage was determined as 0.585. For the variant U61G U67G, the self-cleavage came out at 0.808. As to U67G G68A, the self-cleavage is 1.08. With U62G U64A the figure was 0.49; with U62G U64C, 0.502. With U62A U69C the figure was 1.09; with C66A U69G, 0.882; with C66A U69C, 1.04. With U61C G68U the figure was 0.893.

For the variant G65C G68U, the self-cleavage is 0.406. With G65C G68C the figure was 0.633; with U67G U69G, 1.11. To U64G G65U belongs 0.672.

In the case of U64C G65U, the self-cleavage worked out at 0.699. As for A60U U64G, the self-cleavage is 0.333. With A60U U64A the figure was 0.394.

For U64A U67C, the self-cleavage is 0.83. With C66A G68A the figure was 0.87; with U67A, 0.989. With U67C the figure was 0.997; with U67G, 1.02; with C63U U64A, 0.73. With C63U U64C, the self-cleavage amounted to 0.836. Turning to U62C C66U, the self-cleavage was found to be 0.654. In the case of U62C C66G, the self-cleavage was 0.567. To G68C U69C belongs 1.1. With U61A C63G the figure was 0.516; with U61G G65C, 0.449; with U61A U62A, 0.839. Consider U64G U67A, for which the self-cleavage was found to be 0.88. With U64G U67C the figure was 0.788; with U64G U67G, 0.769; with C63G G68C, 0.706. To A60U U62G belongs 0.679; to U67C G68C, 1.01; to C66G U67C, 0.914. With A60U U61A the figure was 0.623; with U61C C63G, 0.427. As to C63A C66U, the self-cleavage came to 0.619.

On to C63A C66G, for which the self-cleavage turned out to be 0.402. With C63A C66A the figure was 0.304; with U61G U69A, 0.969. U61G U69C: the self-cleavage stood at 0.697. For C63A G65C, the self-cleavage was determined as 0.491. With G65C C66A the figure was 0.788; with U64G, 0.952; with U64C, 0.941. Consider U64A, for which the self-cleavage worked out at 0.963. To G65C U69G belongs 0.862; to G65C U69C, 1.05.

As for U62C C63A, the self-cleavage was 0.753. To U64A G68A belongs 0.99; to U61C U62A, 0.554; to U61C U62G, 0.487. With C66A U67C the figure was 0.925; with C63G U69G, 0.921; with C63U G65U, 0.772.

Take C63U G65C: the self-cleavage came to 0.419. With C63U G65A the figure was 0.672; with C63U U67A, 0.94. With U62A U64G, the self-cleavage stood at 0.622. With U64C U69A the figure was 0.972. With U64C U69G, the self-cleavage is 1.

With C63U G68U, the self-cleavage was found to be 0.968. In the case of C63U G68C, the self-cleavage turned out to be 0.972. With U61G C66U the figure was 0.659; with U62C G65U, 0.531. As for U62C G65A, the self-cleavage worked out at 0.479. With C66U U67A the figure was 1.02. Take C63G U67A: the self-cleavage came out at 0.614. To A60U U67G belongs 0.615; to U64G C66A, 0.422. On to C66U U69G, for which the self-cleavage is 1.06. As for U62G G65U, the self-cleavage turned out to be 0.455.

For U62A U67G, the self-cleavage was found to be 0.918.

Regarding U61C G65A, the self-cleavage turned out to be 0.36. To C66U G68U belongs 0.969; to C66U G68A, 0.976; to U61G U62C, 0.873. With U61G U62G the figure was 0.71; with U61G U62A, 0.871; with U64C U67G, 0.824. Turning to G65A C66A, the self-cleavage is 0.75. With C66G G68C the figure was 0.735. As to C66G G68U, the self-cleavage came to 0.932.

With C63G G65U, the self-cleavage is 0.525. With C63G G65A the figure was 0.461; with U62A G68U, 0.964; with U62G C66G, 0.442. With U61A G68A the figure was 1.05; with U62A C66U, 0.737. Regarding G65A U69C, the self-cleavage was found to be 1.05. To G65A U69A belongs 0.932; to U64C G68U, 0.803; to G65U U69G, 0.94. Take U62A G65U: the self-cleavage is 0.717.

For U62A G65C, the self-cleavage is 0.413. With U61A C66U the figure was 0.83. With C63G U64A, the self-cleavage is 0.689. With C63G U64C the figure was 0.407; with U61C U67G, 0.798. Regarding U61G U64C, the self-cleavage was 0.64.

For U64A G65U, the self-cleavage stood at 0.827.

In the case of U64A G65C, the self-cleavage amounted to 0.39.

As to U62G U67G, the self-cleavage was 0.841. To U62G U67C belongs 0.684; to U67C U69C, 1.1.
